Source: the Human Domainome abundance scans (Beltran et al. 2025)

B1: Histone H1t, residues 44 to 112; numbered along this chain, P22492 (parent)
chain: VSKLITEALSVSQERVGMSLVALKKALAAAGYDVEKNNSRIKLSLKSLVNKGILVQTRGTGASGSFKLS

Variants of: B1
Assay: abundance fitness (aPCA) (normalised: wild type 0, dead -1); higher = more abundant; growth selection in yeast, the domain comes from the species named
Conditions: Homo sapiens

Abundance fitness of substitutions, site by site:
L48: C -0.589 | P -0.873 | D -0.405 | A -0.755 | I -0.564 | F -0.404 | V -0.536 | E -0.784 | S -0.801 | G -0.894 | K -0.939 | N -0.775 | Q -0.643 | Y -0.624 | T -0.592 | H -0.979 | R -0.864 | W -0.402
L43: A 0.18 | V -0.617 | R 0.049 | N 0.266 | H 0.015 | Q 0.172 | E 0.229 | S 0.034 | P -0.483 | D 0.036 | K 0.181 | G -0.061
V49: L 0.052 | D -0.416 | Q -0.323 | M 0.062 | P -0.434 | H -0.432 | I -0.026 | F -0.056 | W -0.495 | K -0.173 | N -0.54 | R -0.262 | A -0.336 | S -0.423 | Y -0.135
S47: T 0.01 | A -0.049 | I -0.587 | C 0.036 | V -0.307 | E 0.232 | R -0.087 | L -0.228 | Q 0.02 | D -0.07 | H -0.13 | W -0.143 | G -0.465 | M -0.05 | F -0.41 | N -0.156 | Y -0.23 | K -0.191
K46: I -0.129 | S -0.332 | T -0.209 | V -0.197 | N -0.489 | A -0.01 | W -0.418 | H -0.35 | L -0.178 | G -0.875 | Q -0.226 | C -0.628 | R -0.053 | P -0.841 | D -0.329 | E -0.053 | M -0.23 | Y -0.895
K42: Y -0.138 | V -0.024 | T -0.045 | R -0.125 | S -0.108
N50: Q 0.066 | P -0.076 | K -0.108 | S 0.092 | E 0.027 | F -1.1 | D -0.105 | L -0.312 | Y -0.092 | G -0.099 | C -0.311 | H -0.24 | W -0.827 | A -0.037 | I -0.398 | T 0.018 | M -0.394 | V -0.388 | R -0.082
G52: I -0.352 | R -0.434 | F -0.184 | L -0.212 | M -0.199 | C -0.01 | K -0.123 | H -0.283 | N -0.201 | Q -0.3 | P -0.39 | D -0.08
L45: Q -0.782 | M -0.386 | C -0.425 | E -0.978 | T -0.63 | F -0.372 | K -0.859 | N -0.897 | V -0.141 | I -0.417 | G -0.574 | S -0.742 | R -0.915 | P -0.46 | H -1.2 | A -0.643 | W -0.125
S44: I -0.239 | M -0.047 | H -0.126 | R -0.173 | A 0.324 | P -0.636 | N -0.148 | E 0.175 | W -0.426 | C 0.217 | F -0.298 | Y -0.279 | L -0.108 | V 0.16 | T 0.081 | Q -0.072
K51: S -0.161 | G -0.322 | L -0.281 | E 0.016 | W -0.557 | H -0.289 | A -0.164 | N -0.081 | V -0.481 | T -0.212 | P -0.323 | Q -0.065 | M -0.258 | F -0.557 | R 0.132 | Y -1.1 | D -0.383
